Experimental data reported in the RNAGym collection of RNA variant scans (doi:10.7554/elife.80360).

B1: CPEB3 Ribozyme (parent)
chain: GGGGGCCACAGCAGAAGCGUUCACGUCGCGGCCCCUGUCAGAUUCUGGUGAAUCUGCGAAUUCUGCUGU

Variants of: B1
Assay: self-cleavage, relative activity (ratio to wild type); higher = more cleavage; co-transcriptional

Variant	self-cleavage
A15C G41U	0.463
A15G G47U	1.04
A15G G47C	1.05
A15C G65U	0.411
A15C G65C	0.277
G14C C54A	0.264
A16C C45U	0.339
A16C C45G	0.272
A16C C45A	0.264
G14U U36C	0.535
G14U U36G	0.142
G14U G48U	0.855
G14U G48C	0.907
A15U U38C	0.613
G14A U53G	0.344
G14A U53A	0.362
G14A G17C	0.175
G14A G17A	0.134
G14C C66G	0.447
G14C C32U	0.716
G14U U69A	0.923
G14U U69C	1.03
G14U U69G	0.94
A15U A42G	0.68

Variant	self-cleavage
G14A G28A	0.147
G14A G28U	0.112
A15U U61A	0.931
A16C C66U	0.203
A15C U43G	0.491
A15C U43A	0.459
G14A U49G	0.842
G14A U49A	0.742
A15G C29U	0.358
G14C U69A	0.769
A15G G50U	0.995
A15G G50C	0.956
G14A G30C	0.281
G14A G30U	0.21
A15U C63G	0.764
A15U A40U	0.288
A15G U44G	0.954
A15G U44A	0.987
A15G U44C	0.99
A15G A51U	0.963
A15G A51G	1.05
A16C G47U	0.427
A15C G68A	0.966
A15C A40U	0.451

Variant	self-cleavage
G14U G19U	0.17
G14U G19C	0.15
G14U G68A	0.908
G14U G68C	0.779
A16C A40G	0.16
G14U G41A	0.206
G14U G41U	0.276
G14C G19C	0.126
G14C G19U	0.156
A15G G30C	0.618
G14C G56A	0.31
A15C C34U	0.909
A15C C34G	0.131
A15C A23U	0.917
A15C A23C	0.835
A15C A23G	0.659
A15U G50A	0.943
A16C G30A	0.188
A16C G30U	0.131
G14U U55A	0.325
G14U	0.855
G14C	0.689
G14U G37A	0.197
G14A G31U	0.207

Variant	self-cleavage
A15C C57G	0.269
A15C C57A	0.282
A15U U46G	0.898
A15U U46A	0.985
G14C G47C	0.794
G14A U21A	0.646
G14A U21C	0.413
G14A U21G	0.121
A16C G25C	0.0921
A15C G31U	0.241
A16C C32A	0.0786
A16C C24A	0.161
A16C C24U	0.164
A15U G65U	0.47
A15U G65A	0.753
G14U U44A	0.553
G14U U44G	0.566
A15G U43A	0.851
A15G U43G	0.779
A15C U46G	0.929
G14C A60C	0.21
G14C A60U	0.249
G14A C54U	0.755
G14A C54G	0.312

Variant	self-cleavage
G14U U20C	0.219
A15C C45G	0.865
A15C C45A	0.772
A15C C45U	0.949
A15U G28A	0.161
A16C C18U	0.128
G14A C33G	0.414
G14A C33U	0.747
A16C A42G	0.24
G14U C33G	0.341
A15U C45U	0.858
A15U C45A	0.795
G14C G58U	0.817
G14C G58C	0.497
G14U C32G	0.237
A15G A40C	0.631
A15G A40U	0.851
G14A G41C	0.179
G14A G41U	0.264
G14U A42G	0.404
A15U U67C	0.827
G14C U49C	0.55
G14U U49A	0.858
A15C U49A	0.889

Variant	self-cleavage
G14A G19U	0.091
A15G C22G	0.157
A15G C22A	0.191
G14A C63G	0.73
G14A C63U	0.98
A15G A42U	0.946
A15C G17C	0.131
A15C C29A	0.297
G14U G28C	0.159
G14U G28A	0.213
A15C A51G	0.897
A15C A51U	0.826
G14U U61A	0.461
A15C U55G	0.32
G14U U26C	0.478
G14U G17C	0.128
G14C C35A	0.173
G14A U36G	0.134
G14U C24A	0.249
A15C C24G	0.269
A15U U55G	0.335
A15C G30C	0.189
G14C C63G	0.971
G14U A15C	0.415

Variant	self-cleavage
G14U A15U	0.358
A15G G65A	0.82
A15U G41A	0.28
A16C C33U	0.261
A15C A59U	0.353
A15C A59G	0.798
G14C A51U	0.489
A15G G58A	0.964
G14U A16G	0.504
A15C C63U	0.937
A15C C63A	0.921
G14C G17U	0.138
A15C U53C	0.451
A15C U53G	0.558
G14U U46G	0.871
A15G U64A	0.845
A15G U64C	0.939
A16C G31C	0.113
A16C G31U	0.124
A16C G31A	0.0686
A15U C27U	0.153
A15U G25A	0.121
A15U G25C	0.165
A15U A60U	0.325

Variant	self-cleavage
G14C C57G	0.203
A15U C39U	0.583
G14A U46A	0.85
A15C C32U	0.853
A16C G48C	0.409
A16C G28U	0.113
G14C U61C	0.241
A16C A59C	0.106
A16C A59U	0.221
G14U C35A	0.257
G14A U64A	0.444
G14U A59C	0.309
G14U A59G	0.753
G14A G68A	0.866
G14A G68U	0.765
A16C C57G	0.0856
A16C C57A	0.129
G14U C27G	0.154
G14U C27A	0.172
G14A U26G	0.401
G14A U26C	0.432
G14A C34U	0.751
G14U A40C	0.17
A15G U46G	0.974

Variant	self-cleavage
A15G U46A	1.04
A15U C29U	0.151
G14U A60C	0.269
G14U A60U	0.331
A15U C35A	0.192
A15U C35G	0.187
A15G C57U	0.294
A15C U67A	0.916
A15C U67C	0.888
G14A U38G	0.152
G14A U38C	0.501
A15C G58U	0.936
G14C U20G	0.151
G14U C66U	0.436
G14A C57U	0.229
A15G C39U	0.893
A15G C39G	0.928
G14C C18A	0.149
G14C C18U	0.155
G14C A52C	0.459
G14C A52U	0.562
A15G G31U	0.558
G14C U26A	0.346
A15U A16G	0.56

Variant	self-cleavage
A15G U21C	0.847
G14C A40U	0.199
G14U G56A	0.539
A15U C33G	0.294
A15C C27A	0.091
G14A C32U	0.802
A15G G68U	1.01
G14A G65A	0.258
G14U A51U	0.739
A15C G19U	0.164
A15C G19A	0.185
A15C G19C	0.214
A15C A52U	0.816
A15C A52C	0.748
G14C C24G	0.131
G14C C24A	0.136
A15U G17C	0.171
A15U A52G	0.939
A16C C34A	0.165
G14A U20C	0.181
A15C G25U	0.192
A15C G25C	0.186
G14A U55A	0.289
A15G U53A	0.893

Variant	self-cleavage
A15C C35U	0.686
A15C U26G	0.586
A16C A60C	0.215
G14A U61G	0.414
G14A U61C	0.246
A15G G37C	0.239
G14C G30U	0.157
G14C G30C	0.142
G14A G47A	0.826
G14C U53A	0.326
G14C U53C	0.19
A15C U21G	0.157
A15G A52U	0.959
A15G A52G	1.03
G14A G37C	0.114
G14A G37U	0.138
G14C U55G	0.185
A15G A60U	0.579
A15G G17C	0.138
A15U C57U	0.323
A15G C24U	0.87
A15G C24G	0.405
G14C A15U	0.179
G14C A15G	0.725

Variant	self-cleavage
G14C A59G	0.62
A15C G56C	0.446
A15G A59C	0.649
A15U U62A	1.01
G14C C34U	0.653
A15U C24A	0.299
A15U G68A	0.937
A15U G68U	0.967
A16C G50A	0.23
A16C G50U	0.306
A15U U21A	0.841
A15C U69A	0.962
A15C U69G	1.02
G14U U62A	0.482
A15U C32U	0.913
A15G U20C	0.126
G14C A23G	0.365
G14C G48U	0.805
A15U U69C	1.03
A15U U69A	0.961
G14C U44C	0.189
A15G U62G	0.94
G14C U38C	0.284
G14C U38A	0.308

Variant	self-cleavage
G14A U69C	1
G14A U69G	0.934
G14A U69A	0.875
A15U U44G	0.713
A15U U44C	0.516
A15G U38A	0.877
A16C A52G	0.389
A15C U62C	0.841
A15C U62G	1.02
A15C U62A	0.912
G14U U67A	0.733
A15U U36C	0.557
A15C C66G	0.351
A15C C22A	0.148
A15C C22G	0.0813
A16C G41C	0.18
A15G G28C	0.165
G14C U43A	0.204
G14C U43C	0.399
A15C C33U	0.911
A16C C39G	0.151
A16C C39U	0.184
A15U G56U	0.517
A15G A23C	0.919

Variant	self-cleavage
A15U G48U	0.9
A15U G48C	0.965
A15C C39A	0.359
G14U A52G	0.851
G14U G58U	0.893
A15G C66G	0.862
G14U C39A	0.223
G14U U21G	0.147
A15C G47C	0.894
A15C G47A	0.889
G14U C22G	0.172
A15C G50U	0.878
G14A C35G	0.236
G14A C35A	0.202
G14U U43A	0.321
G14C G65U	0.242
A15G C32G	0.415
A15G A16C	0.145
A16C C22U	0.0688
A15G G41A	0.732
A15G G41C	0.777
A15U A51U	0.851
